Laboratory results published in PMC9665036.

Columns and labels:
[1] = target: SpyCatcher-AP205 capsid virus-like particle (cVLP) (Acinetobacter phage AP205); assay: covalent SpyTag-SpyCatcher coupling, SDS-PAGE densitometry; SpyTagged sE2 mixed with SpyCatcher-AP205 cVLP at molar ratio 2:1 (antigen per cVLP binding site), 36 h at 4 °C; Coomassie SDS-PAGE, densitometry (ImageQuantTL)
[2] = target: oligomeric soluble HCV E2 (sE2, Con1 isolate, genotype 1b) with C-terminal 6x His tag and SpyTag, SEC peak 2 (Hepatitis C virus, isolate Con1 (genotype 1b)) (UniProt Q9WMX2); assay: non-reducing SDS-PAGE; SEC peaks of sE2 in SDS-PAGE, Coomassie staining, with or without reducing agent (DTT)
[3] = target: oligomeric soluble HCV E2 (sE2, Con1 isolate, genotype 1b) with C-terminal 6x His tag and SpyTag, SEC peak 2 (Hepatitis C virus, isolate Con1 (genotype 1b)) (UniProt Q9WMX2); assay: SEC; analytical SEC of the purified sE2 SEC peak fractions against marker proteins of known size

Substance | coupling efficiency [1] [%] | stoichiometry N [2] | stoichiometry N [3]
monomeric soluble HCV E2 (sE2, Con1 isolate, genotype 1b) with C-terminal 6x His tag and SpyTag, SEC peak 1 (from UniProt Q9WMX2 384-661) (domain or fragment) | 60 | – | –
oligomeric soluble HCV E2 (sE2, Con1 isolate, genotype 1b) with C-terminal 6x His tag and SpyTag, SEC peak 2 (from UniProt Q9WMX2 384-661) (domain or fragment) | 60 | 2 | 4
